Results published in patent US20070253950A1 (Pfizer, published 2007).

Target: T1, human RAGE-Fc fusion protein (human, UniProt Q15109 23-344)
T1 construct: amino acids 1-344 of human RAGE appended to the Fc domain of human IgG; also called hRAGE-Fc; huRAGE-Fc
Experiment: ligand competition ELISA: HMGB1 coated, hRAGE-Fc pre-mixed with antibody, bound hRAGE-Fc detected with anti-huIgG-HRP; blocked ligand HMGB1
Description: Wells were washed and blocked as described above and exposed to 100 μl of pre-incubated mixtures of RAGE-Fc or TrkB-Fc (a non-specific Fc control), at 0.1 μg/ml, plus various forms of the indicated antibody preparation (dilutions of immune sera, hybridoma supernatants or purified antibodies) for 1 hour at room temperature.

B1: XT-H2 (antibody, V domains shown)
VH: QVQLQQSGAELAKPGASVKMSCKASGYTFTTYWMHWVKQRPGQGLYWIGYINPSTGYTEYNQKFKDKATLTADKSSSTAYMQLSSLTSEDSAVYYCARWAGYTIDYWGQGTSVTVSS
VL: DVVLTQTPLSLPVNIGDQASISCKSTKSLLNSDGFTYLDWYLQKPGQSPQLLIYLVSDRFSGVPDRFSGSGSGTDFTLTISRVEAEDLGVYYCFQSNSLPLTFGSGTKLEIK
notes: also called 1hRAGEP3/16
**Q.** Which “IC50 (read off the curve)” value does the source give for B1 here?
**A.** ~0.1 µg/mL
